Experiment [1] concerns the target recombinant phosphomimetic CENP-T/W complex (T11D, T27D, T85D) (human) (UniProt Q96BT3). Kind of experiment: pull-down.
In experiment [2] the target is recombinant full-length wild-type CENP-T/W complex (human, UniProt Q96BT3 1-561; Q5EE01 1-88). Kind of experiment: pull-down.
recombinant full-length wild-type CENP-T/W complex, sequence (Q96BT3 whole entry, chain 1 of 2): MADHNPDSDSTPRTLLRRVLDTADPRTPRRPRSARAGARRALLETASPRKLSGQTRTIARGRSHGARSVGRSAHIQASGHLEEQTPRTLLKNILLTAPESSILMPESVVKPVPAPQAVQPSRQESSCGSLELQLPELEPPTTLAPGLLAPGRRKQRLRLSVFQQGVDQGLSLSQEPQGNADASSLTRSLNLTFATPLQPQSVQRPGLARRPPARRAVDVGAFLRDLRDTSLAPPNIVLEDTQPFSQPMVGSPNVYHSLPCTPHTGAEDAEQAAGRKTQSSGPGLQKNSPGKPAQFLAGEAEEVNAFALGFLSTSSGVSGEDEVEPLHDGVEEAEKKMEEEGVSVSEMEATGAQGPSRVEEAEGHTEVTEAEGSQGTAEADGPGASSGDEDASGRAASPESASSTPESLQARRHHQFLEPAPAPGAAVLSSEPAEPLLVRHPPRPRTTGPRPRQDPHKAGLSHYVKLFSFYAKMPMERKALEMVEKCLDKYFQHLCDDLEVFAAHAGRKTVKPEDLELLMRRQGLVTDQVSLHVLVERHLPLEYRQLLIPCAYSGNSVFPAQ
recombinant full-length wild-type CENP-T/W complex, sequence (Q5EE01 whole entry, chain 2 of 2): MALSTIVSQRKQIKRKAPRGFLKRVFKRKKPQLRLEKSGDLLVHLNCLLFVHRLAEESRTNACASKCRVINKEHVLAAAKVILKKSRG

recombinant phosphomimetic CENP-T/W complex (T11D, T27D, T85D) (human), sequence (Q96BT3 whole entry T11D/T27D/T85D, chain 1 of 2): as the sequence (Q96BT3 whole entry, chain 1 of 2) above, with T11D, T27D, T85D counted along it
recombinant phosphomimetic CENP-T/W complex (T11D, T27D, T85D) (human), sequence (Q5EE01 whole entry, chain 2 of 2, further chain): as the sequence (Q5EE01 whole entry, chain 2 of 2) above

“recombinant full-length GFP-fused human Ndc80 complex (from UniProt O14777 1-642; Q9BZD4 1-464; Q8NBT2 1-197; Q9HBM1 1-224)”: the fold weaker recruitment than the Ndc80 proteins with shortened stalk in experiment [1] turned out to be 5 times weaker.

B1: human Bonsai Ndc80 complex (Bonsai Ndc80-GFP) (complex)
chain 1: MKRSSVSSGGAGRLSMQELRSQDVNKQGLYTPQTKEKPTFGKLSINKPTSERKVSLFGKRTSGHGSRNSQLGIFSSSEKIKDPRPLNDKAFIQQCIRQLCEFLTENGYAHNVSMKSLQAPSVKDFLKIFTFLYGFLCPSYELPDTKFEEEVPRIFKDLGYPFALSKSSMYTVGAPHTWPHIVAALVWLIDCIKIHTAMKESSPLFDDGQPWGEETEDGIMHNKLFLDYTIKCYESFMSGADSFDEMNAELQSKLKDLFNVDAFKLESLEAKNRALNEQIARLEQERSTANKANAERLKRLQKSADLYKDRLGLEIRKIYGEKLQFIFTNIDPKNPESPFMFSLHLNEARDYEVSDSAPHLEGLAEFQENVRKTNNFSAFLANVRKAFTATVYN
chain 2: METLSFPRYNVAEIVIHIRNKILTGADGKNLTKNDLYPNPKPEVLHMIYMRALQIVYGIRLEHFYMMPVNSEVMYPHLMEGFLPFSNLVTHLDSFLPICRVNDFETADILCPKAKRTSRFLSGIINFIHFREACRETYMEFLWQYKSSADKMQQLNAAHQEALMKLERLEKEVDEDTTVTIPSAVYVAQLYHQVSKIEWDYECEPGMVKGIHHGPSVAQPIHLDSTQLSRKFISDYLWSLVDTEW
For B1, in experiment [2], the binding result is listed as “binds”.
